The target in the assay is Cyclophilin J (human) (UniProt Q9H2H8).
Chain of UniProt Q9H2H8 (Q9H2H8 whole entry): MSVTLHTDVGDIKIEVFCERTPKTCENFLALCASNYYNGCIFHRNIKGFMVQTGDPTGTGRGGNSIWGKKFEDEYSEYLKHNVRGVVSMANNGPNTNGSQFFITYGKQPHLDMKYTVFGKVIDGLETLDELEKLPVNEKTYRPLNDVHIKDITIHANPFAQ

Consider Cyclosporin A (peptide), for which the inhibition of the PPIase activity of CYPJ (chymotrypsin-coupled assay, 13.1 μM CYPJ, 1-16 μM CsA) was 12 µM.

Source of the values: PMC4447340.
